The values below come from patent US20120021995A1 (published 2012).

Changes are numbered by the printed parent chain.

T1: recombinant human TRAIL R1 (DR4)/Fc chimera (human, UniProt O00220 24-239)
T1 construct: bought (R&D Systems); not shown: Fc of the bought chimera (R&D Systems)
T1 sequence: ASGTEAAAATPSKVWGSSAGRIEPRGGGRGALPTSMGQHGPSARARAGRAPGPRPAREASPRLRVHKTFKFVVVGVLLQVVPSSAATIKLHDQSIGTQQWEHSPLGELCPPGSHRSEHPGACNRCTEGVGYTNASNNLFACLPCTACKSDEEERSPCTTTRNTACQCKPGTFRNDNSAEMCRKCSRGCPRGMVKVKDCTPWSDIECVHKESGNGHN

T2: DR4 (TRAIL-R1) on cancer cells (human, UniProt O00220 24-468)
T2 sequence: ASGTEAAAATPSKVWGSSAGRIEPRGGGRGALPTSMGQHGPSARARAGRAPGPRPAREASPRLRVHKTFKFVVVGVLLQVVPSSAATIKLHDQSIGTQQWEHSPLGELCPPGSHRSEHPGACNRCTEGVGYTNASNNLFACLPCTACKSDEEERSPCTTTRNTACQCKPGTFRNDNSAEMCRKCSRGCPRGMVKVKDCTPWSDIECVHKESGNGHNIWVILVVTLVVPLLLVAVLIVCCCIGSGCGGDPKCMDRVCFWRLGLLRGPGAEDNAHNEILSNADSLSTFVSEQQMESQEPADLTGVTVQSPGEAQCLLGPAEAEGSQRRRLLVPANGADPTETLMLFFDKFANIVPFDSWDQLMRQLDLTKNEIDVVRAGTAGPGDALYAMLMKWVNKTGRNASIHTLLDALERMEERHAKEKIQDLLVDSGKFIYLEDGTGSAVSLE

B1: 064-40.2A10 (designed binder)
chain: ALQTVCLKGTKVHMKCFLAFTQTKTFHEASEDCISRGGTLSTPQTGSENDALYEYLRQSVGNEAEIWLGLNGVLQRGGWVDMTGARIAYKNWETEITAQPDGGPGGERENCAVLSGAANGKWFDKRCRDQLPYICQFGIV
notes: on phage
B2: 064-40.2E10 (designed binder)
chain: B1 chain with V73Y, Q75D, R76G, G77V, P104Q, G106C, E107R, R108W
notes: on phage
B3: 064-101.4H1 (designed binder)
chain: B1 chain with G72P, V73Y, L74T, Q75S, R76W, G78L, P104V, E107R, R108G
notes: on phage
B4: 064-101.4B10 (designed binder)
chain: ALQTVCLKGTKVHMKCFLAFTQTKTFHEASEDCISRGGTLSTPQTGSENDALYEYLRQSVGNEAEIWLGLNQWVAFWSWVDMTGARIAYKNWETEITAQPDGGSAVSGENCAVLSGAANGKWFDKRCRDQLPYICQFGIV
notes: on phage
B5: 064-98.1G6 (designed binder)
chain: B1 chain with V73W, Q75S, R76G, G77Y, P104R, G105V, G106W, E107S, R108W
notes: on phage
B6: 064-40.2G11 (designed binder)
chain: B1 chain with V73W, Q75E, R76G, G77A, P104W, G105Q, G106W, E107R, R108W
notes: on phage
B7: 064-40.2C7 (designed binder)
chain: ALQTVCLKGTKVHMKCFLAFTQTKTFHEASEDCISRGGTLSTPQTGSENDALYEYLRQSVGNEAEIWLGLNSYRLHYGWVDMTGARIAYKNWETEITAQPDGGRRWLGENCAVLSGAANGKWFDKRCRDQLPYICQFGIV
notes: on phage
B8: 064-40.2D9 (designed binder)
chain: B1 chain with G72W, V73Q, Q75Y, R76Y, G77R, G78Y, P104V, G106C, E107M, R108V
notes: on phage
B9: 064-99.2H5 (designed binder)
chain: B1 chain with V73L, Q75S, R76D, G77W, G78W, P104G, G105N, G106Q, E107S
notes: on phage
B10: 71p88P1A1 (designed binder)
chain: EPPTQKPKKIVNAKKDVVNTKMFEELKSRLDTLAQEVALLKEQQALQTVCLKGTKVHMKCFLAFTQTKTFHEASEDCISRGGTLSTPQTGSENDALYEYLRQSVGNEAEIWLGLNGWMDGSGWVDMTGARIAYKNWETEITAQPDGGRLWRWENCAVLSGAANGKWFDKRCRDQLPYICQFGIV
B11: 71p88P1G11 (designed binder)
chain: B10 chain with D119A, S121V, R148P, L149G, W150L
B12: 71p88P1B12 (designed binder)
chain: B10 chain with M118I, D119E, S121A, R148W, L149R, W150S
B13: 71p88P1D9 (designed binder)
chain: B10 chain with M118V, D119A, S121V, R148G, L149G
B14: 71p88P1B9 (designed binder)
chain: B10 chain with M118L, D119A, R148G, L149G, R151P
B15: 71p88P1B4 (designed binder)
chain: B10 chain with M118L, D119E, S121Y, R148A, L149E, W150R, R151A
B16: 119p83P1H5 (designed binder)
chain: ALQTVCLKGTKVHMKCFLAFTQTKTFHEASEDCISRGGTLSTPQTGSENDALYEYLRQSVGNEAEIWLGLNGWLEGVGWVDMTGARIAYKNWGTGVMGQPDGGWPFSNENCAVLSGAANGKWFDKRCRDQLPYICQFGIV
notes: on phage
B17: 119p83P1C9 (designed binder)
chain: B16 chain with T94G, G95E, M97L, G98L
notes: on phage
B18: 119p83P1H8 (designed binder)
chain: B16 chain with T94G, G95S, V96I, M97S, G98A
notes: on phage
B19: 119p83P1A12 (designed binder)
chain: B16 chain with G93Q, T94P, V96L, M97W, G98R
notes: on phage
B20: 119p83P1G3 (designed binder)
chain: B16 chain with G93Y, T94V, G95R, V96S, M97E
notes: on phage
B21: 119p83P1A9 (designed binder)
chain: B16 chain with G93V, T94Y, G95R, V96P, M97G, G98M
notes: on phage
B22: 119p83P1H7 (designed binder)
chain: B16 chain with G93V, T94N, G95H, V96G, M97V
notes: on phage
B23: 119p83P1D11 (designed binder)
chain: B16 chain with G93Q, T94V, G95H, V96A, M97R, G98S
notes: on phage
B24: 119p83P1A7′ (designed binder)
chain: B16 chain with G93Y, T94S, G95W, V96P, M97K, G98L
notes: on phage
B25: 119p83P1F12 (designed binder)
chain: B16 chain with G93F, T94I, G95P, V96A, M97D, G98R
notes: on phage
B26: 119p83P1A3 (designed binder)
chain: B16 chain with G93V, T94A, G95K, V96D, M97H, G98E
notes: on phage
B27: 119p83P1H3 (designed binder)
chain: B16 chain with G93S, T94E, G95D, V96R, M97P
notes: on phage
B28: 119p83P1C11 (designed binder)
chain: B16 chain with G93A, T94M, G95H, V96Y, M97Y, G98W
notes: on phage
B29: 119p83P1C12 (designed binder)
chain: B16 chain with G93N, T94S, G95N, M97V, G98L
notes: on phage
B30: 119p83P1D10 (designed binder)
chain: B16 chain with T94R, G95R, V96R, M97N, G98L
notes: on phage
B31: 119p83P1A11 (designed binder)
chain: B16 chain with G93D, T94A, G95P, M97S
notes: on phage
B32: 119p83P1G12 (designed binder)
chain: B16 chain with T94S, G95Y, V96G, M97P, G98F
notes: on phage

One assay has as its target T1, recombinant human TRAIL R1 (DR4)/Fc …. Nature of the assay: phage ELISA on DR4/Fc. The procedure: The remaining overnight culture was used to make a master stock plate by adding 100 μL of 50% glycerol to each well and storing at −80° C. The replica culture plate was grown at 37° C. with shaking at 250 rpm for approximately 2 hrs until the OD₆₀₀ was 0.5-0.7. The wells were then infected with K07 helper phage to 5×10⁹ pfu/mL mixed and incubated at 37° C. for 30 minutes without shaking, then incubated an addition 30 minutes at 37° C. with shaking at 250 rpm. The cultures were then spun down at 2500 rpm and 4° C. for 20 minutes. The supernatants were removed from the wells and the bacterial cell pellets were re-suspended in 500 μL of 2xYT containing 50 μg/mL carbenicillin and 50 μg/mL kanamycin. An air-permeable membrane was placed on the culture block and cells were grown overnight at room temperature with shaking at 250 rpm.
On day 3, cultures were spun down and supernatants containing the phage were blocked with 3% milk/PBS for 1 hr at room temperature. An initial Phage ELISA was performed using 75-100 ng of antigen bound per well. Non-specific binding was measured using 75-100 ng of human IgG1 Fc per well. DR4/Fc antigen (R&D Systems)-coated wells and IgG Fc coated wells were prepared fresh the night before by binding the above amount of antigen diluted in 100 μL of PBS per well. Antigen plates were incubated overnight at 4° C. then for 1 hour at 37° C., washed twice with PBS/0.05% Tween 20 and twice with PBS, and then blocked with 3% milk/PBS for 1 hr at 37° C. prior to the ELISA. Blocked phage were bound to blocked antigen-bound plates for 1 hr then washed twice with 0.05% Tween 20/PBS and then twice more with PBS. A HRP-conjugated anti-M13 secondary antibody diluted in 3% milk/PBS was then applied, with binding for 1 hr and washing as described above. The ELISA signal was developed using 90 μL TMB substrate mix and then stopped with 90 μL 0.2 M sulfuric acid, then ELISA plates were read at 450 nm. […] Secondary ELISA screens were performed similarly to the protocol detailed above.
Regarding B1, the binding result is listed as “binds”. Turning to B2, the binding result is listed as “binds”. The same measure, in the same setting: for B3 the value was “binds”; for B4, “binds”; for B5, “binds”.

As to B6, the binding result is “binds”.

Regarding B7, the binding result is “binds”.

As to B8, the binding result was “binds”. Same read-out and setting: for B9 the value was “binds”.

For the next assay, the target named is T2, DR4 (TRAIL-R1) on cancer cells. Nature of the assay: cell-based or functional assay.
For the molecule B10, the “Colo205 % killing (% of TRAIL activity)” value was -1%, the “H2122 % killing (% of TRAIL activity)” value was -2% and the “ST486 % killing (% of TRAIL activity)” value worked out at 57%.

For the molecule B11, the “Colo205 % killing (% of TRAIL activity)” value worked out at 1%, the “H2122 % killing (% of TRAIL activity)” value stood at 4% and the “ST486 % killing (% of TRAIL activity)” value came to 45%. On the same counts, the results for B12 are -10%, -1% and 26%. Turning to B13, the “Colo205 % killing (% of TRAIL activity)” value is -21%, the “H2122 % killing (% of TRAIL activity)” value was -3% and the “ST486 % killing (% of TRAIL activity)” value is 28%. The matching figures for B14: 7%, 3% and 34%. On the same counts, the results for B15 are -25%, -5% and -15%.

The next assay deals with T1, recombinant human TRAIL R1 (DR4)/Fc …. Nature of the assay: phage ELISA on DR4/Fc. This is another data set of the same source. (An ELISA detects its analyte on a solid surface through an enzyme-linked reagent.)
B16: the binding result is recorded as “binds”.

Take B17: the binding result is on record as “binds”. Turning to B18, the binding result is on record as “binds”. On the same count and under the same terms, for B19 the value was “binds”. On to B20, for which the binding result is on record as “binds”.

For the molecule B21, the binding result is listed as “binds”. Same read-out and setting: for B22 the value was “binds”. Still for that read-out and setting: for B23 the value was “binds”; for B24, “binds”; for B25, “binds”. The same measure, in the same setting: for B26 the value was “binds”. Regarding B27, the binding result is on record as “binds”. On to B28, for which the binding result is “binds”. Same read-out and setting: for B29 the value was “binds”; for B30, “binds”; for B31, “binds”. As for B32, the binding result is “binds”.
